Some targets named below: hGLP-1R (Homo sapiens, UniProt P43220); human glucagon receptor (human, UniProt P47871 26-477); human GLP-1 receptor (human, UniProt P43220 24-463).
What all share (assay): cell-based or functional assay
Assay [1] addresses human glucagon receptor (human) (UniProt P47871).
Assay [2] addresses T1, human GIP receptor (human) (UniProt P48546).
T1 sequence (looked up): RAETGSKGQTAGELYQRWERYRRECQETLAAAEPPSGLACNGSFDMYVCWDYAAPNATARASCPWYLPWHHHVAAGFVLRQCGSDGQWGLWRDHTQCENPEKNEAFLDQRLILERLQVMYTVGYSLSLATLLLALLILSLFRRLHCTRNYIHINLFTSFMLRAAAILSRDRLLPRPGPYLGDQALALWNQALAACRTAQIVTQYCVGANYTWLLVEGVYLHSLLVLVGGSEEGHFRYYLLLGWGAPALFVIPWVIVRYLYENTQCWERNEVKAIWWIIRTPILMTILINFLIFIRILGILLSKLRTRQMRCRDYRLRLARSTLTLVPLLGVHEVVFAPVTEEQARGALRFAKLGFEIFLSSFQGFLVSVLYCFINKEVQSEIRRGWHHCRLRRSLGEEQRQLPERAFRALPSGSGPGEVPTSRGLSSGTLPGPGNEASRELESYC

For another assay, the target named is T2, human GIP receptor (human, UniProt P48546 22-466).
T2 sequence (looked up): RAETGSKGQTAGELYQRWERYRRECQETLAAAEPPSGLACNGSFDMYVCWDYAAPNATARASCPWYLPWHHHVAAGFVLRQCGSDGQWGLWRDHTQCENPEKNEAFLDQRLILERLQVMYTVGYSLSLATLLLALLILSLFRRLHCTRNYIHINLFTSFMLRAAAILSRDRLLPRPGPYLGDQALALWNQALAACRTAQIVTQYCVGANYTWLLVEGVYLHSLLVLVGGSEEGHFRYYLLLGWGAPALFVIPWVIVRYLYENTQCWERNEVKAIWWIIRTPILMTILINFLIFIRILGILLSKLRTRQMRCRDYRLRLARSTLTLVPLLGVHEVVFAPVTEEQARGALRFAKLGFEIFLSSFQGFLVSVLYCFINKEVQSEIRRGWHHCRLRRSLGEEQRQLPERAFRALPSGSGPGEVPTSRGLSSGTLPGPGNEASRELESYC

B1: Example 300 (peptide)
peptide: YXEGTXTSDYXIXLDXKAQXKFIXXLIEGGPSSGAPPPS
modifications: Y-Aib-EGT-αMeF(2F)-TSDY-Aib-I-αMeL-LD-Orn-K((2-[2-(2-Amino-ethoxy)-ethoxy]-acetyl)2-(γ-Glu)-CO-(CH2)10-CH3)AQ-Aib-K((2-[2-(2-Amino-ethoxy)-ethoxy]-acetyl)2-(γ-Glu)-CO-(CH2)10-CH3)FI-(D-Glu)-αMeY-LIEGGPSSGAPPPS-NH2
With B1, the cAMP EC50 was 0.194 nM in the assay with hGLP-1R, greater than 9950 nM in assay [1] and 0.0128 nM in assay [2]. Also, the cAMP Emax with hGLP-1R was 107%; in assay [2] it was 102%. For the same molecule, the entries for the “cAMP EC50 (1.0% HSA)” value in the assay with human GIP receptor, with human glucagon receptor and with human GLP-1 receptor were 1.25 nM, greater than 9950 nM and 19.6 nM, respectively. Besides, the “cAMP Emax (1.0% HSA)” value with human GIP receptor is 91.5%.

B2: Example 335 (peptide)
peptide: YXEGTXTSDXSIXLDXKAQXEFIXXLIKGGPSSGAPPPS
modifications: Y-Aib-EGT-αMeF(2F)-TSD-hTyr-SI-αMeL-LD-Orn-K((2-[2-(2-Amino-ethoxy)-ethoxy]-acetyl)2-(γ-Glu)-CO-(CH2)10-CH3)AQ-Aib-EFI-(D-Glu)-αMeY-LIK((2-[2-(2-Amino-ethoxy)-ethoxy]-acetyl)2-(γ-Glu)-CO-(CH2)10-CH3)GGPSSGAPPPS-NH2
Consider B2, for which the “cAMP EC50 (1.0% HSA)” value is 1.04 nM with human GIP receptor, greater than 9950 nM in the assay with human glucagon receptor and 12.3 nM in the assay with human GLP-1 receptor.

B3: Example 319 (peptide)
peptide: YXEGTXTSDVXIXLDXKAQXKFIXXLIEGGPSSGAPPPS
modifications: Y-Aib-EGT-αMeF(2F)-TSDV-Aib-I-αMeL-LD-Orn-K((2-[2-(2-Amino-ethoxy)-ethoxy]-acetyl)2-(γ-Glu)-(10-(4-carboxyphenoxy)decanoyl))AQ-Aib-K((2-[2-(2-Amino-ethoxy)-ethoxy]-acetyl)2-(γ-Glu)-(10-(4-carboxyphenoxy)decanoyl))FI-(D-Glu)-αMeY-LIEGGPSSGAPPPS-NH2
As for B3, the results for the cAMP EC50 (in the assay with hGLP-1R; in assay [1]; in assay [2]) were 0.18 nM, greater than 9950 nM and 0.0196 nM, respectively. Further, the cAMP Emax with hGLP-1R amounted to 100%; in assay [2] it was 98.1%. In addition, the “cAMP EC50 (1.0% HSA)” value with human GIP receptor was 3.35 nM; with human glucagon receptor, greater than 9950 nM; in the assay with human GLP-1 receptor it was 28.1 nM. The “cAMP Emax (1.0% HSA)” value in the assay with human GLP-1 receptor stood at 114%.

B4: Example 318 (peptide)
peptide: YXEGTXTSDVXIXLDXKAQXKFIXXLIEGGPSSGAPPPS
modifications: Y-Aib-EGT-αMeF(2F)-TSDV-Aib-I-αMeL-LD-Orn-K((2-[2-(2-Amino-ethoxy)-ethoxy]-acetyl)2-(γ-Glu)-CO-(CH2)12-CO2H)AQ-Aib-K((2-[2-(2-Amino-ethoxy)-ethoxy]-acetyl)2-(γ-Glu)-CO-(CH2)12-CO2H)FI-(D-Glu)-αMeY-LIEGGPSSGAPPPS-NH2
On to B4, for which the values for the cAMP EC50 (in the assay with hGLP-1R; in assay [1]; in assay [2]) were 0.219 nM, greater than 9950 nM and 0.0402 nM, respectively. For the same molecule, the cAMP Emax was found to be 99.9% with hGLP-1R and 106% in assay [2]. Further, the “cAMP EC50 (1.0% HSA)” value with human GIP receptor was 5.42 nM; with human glucagon receptor, greater than 9950 nM; with human GLP-1 receptor it was 28.7 nM.

B5: Example 301 (peptide)
peptide: YXEGTXTSDYXIXLDXKAQXEFIXXLIKGGPSSGAPPPS
modifications: Y-Aib-EGT-αMeF(2F)-TSDY-Aib-I-αMeL-LD-Orn-K((2-[2-(2-Amino-ethoxy)-ethoxy]-acetyl)2-(γ-Glu)-CO-(CH2)10-CH3)AQ-Aib-EFI-(D-Glu)-αMeY-LIK((2-[2-(2-Amino-ethoxy)-ethoxy]-acetyl)2-(γ-Glu)-CO-(CH2)10-CH3)GGPSSGAPPPS-NH2
On to B5, for which the cAMP EC50 with hGLP-1R is 0.175 nM; in assay [1] it was greater than 9950 nM; in assay [2], 0.0128 nM. For the same molecule, the cAMP Emax turned out to be 99.2% in the assay with hGLP-1R and 97.4% in assay [2]. Besides, the “cAMP EC50 (1.0% HSA)” value with human GIP receptor was 0.919 nM; with human glucagon receptor, greater than 9950 nM; with human GLP-1 receptor, 12.9 nM. The “cAMP Emax (1.0% HSA)” value with human GIP receptor is 85.5%.

B6: Example 322 (peptide)
peptide: YXEGTXTSDXXIXLDXKAQXKFIXXLIEGGPSSGAPPPS
modifications: Y-Aib-EGT-αMeF(2F)-TSD-4Pal-Aib-I-αMeL-LD-Orn-K((2-[2-(2-Amino-ethoxy)-ethoxy]-acetyl)2-(γ-Glu)-CO-(CH2)10-CH3)AQ-Aib-K((2-[2-(2-Amino-ethoxy)-ethoxy]-acetyl)2-(γ-Glu)-CO-(CH2)10-CH3)FI-(D-Glu)-αMeY-LIEGGPSSGAPPPS-NH2
Turning to B6, the cAMP EC50 was 0.144 nM with hGLP-1R, greater than 9950 nM in assay [1] and 0.00937 nM in assay [2]. Also, the cAMP Emax with hGLP-1R is 100%; in assay [2], 101%. Moreover, the “cAMP EC50 (1.0% HSA)” value with human GIP receptor was 0.617 nM; with human glucagon receptor it was greater than 9950 nM; with human GLP-1 receptor, 8.09 nM. Also, the “cAMP Emax (1.0% HSA)” value in the assay with human GLP-1 receptor turned out to be 94.5%.

B7: Example 293 (peptide)
peptide: YXEGTXTSDKSIXLDXKAQXEXIXXLIEGGPSSGAPPPS
modifications: Y-Aib-EGT-αMeF(2F)-TSDK((2-[2-(2-Amino-ethoxy)-ethoxy]-acetyl)2-(γ-Glu)-CO-(CH2)10-CH3)SI-αMeL-LD-Orn-K((2-[2-(2-Amino-ethoxy)-ethoxy]-acetyl)2-(γ-Glu)-CO-(CH2)10-CH3)AQ-Aib-E-αMeF-I-(D-Glu)-αMeY-LIEGGPSSGAPPPS-NH2
In the case of B7, the results for the cAMP EC50 (in the assay with hGLP-1R; in assay [1]; in assay [2]) were 0.102 nM, greater than 9950 nM and 0.00915 nM, respectively. Besides, the cAMP Emax (in the assay with hGLP-1R; in assay [2]) was 102% each time. Further, the figures for the “cAMP EC50 (1.0% HSA)” value in the assay with human GIP receptor, with human glucagon receptor and in the assay with human GLP-1 receptor were 0.987 nM, greater than 9950 nM and 10.7 nM, respectively. The “cAMP Emax (1.0% HSA)” value with human GIP receptor is 96.6%; in the assay with human GLP-1 receptor it was 99.4%.

B8: Example 302 (peptide)
peptide: YXEGTXTSDYXIXLDXKAQXEFIXXLIEGGPSSGAPPPSK
modifications: Y-Aib-EGT-αMeF(2F)-TSDY-Aib-I-αMeL-LD-Orn-K((2-[2-(2-Amino-ethoxy)-ethoxy]-acetyl)2-(γ-Glu)-CO-(CH2)10-CH3)AQ-Aib-EFI-(D-Glu)-αMeY-LIEGGPSSGAPPPSK((2-[2-(2-Amino-ethoxy)-ethoxy]-acetyl)2-(γ-Glu)-CO-(CH2)10-CH3)-NH2
Consider B8, for which the values for the cAMP EC50 (with hGLP-1R; in assay [1]; in assay [2]) were 0.0917 nM, greater than 9950 nM and 0.00916 nM, respectively. Besides, the cAMP Emax in the assay with hGLP-1R is 103%; in assay [2], 100%. Moreover, the “cAMP EC50 (1.0% HSA)” value is 0.453 nM with human GIP receptor, greater than 9950 nM with human glucagon receptor and 6.55 nM with human GLP-1 receptor. For the same molecule, the “cAMP Emax (1.0% HSA)” value with human GLP-1 receptor came out at 99.4%.

B9: Example 324 (peptide)
peptide: YXEGTXTSDXXIXLDXKAQXEFIXXLIEGGPSSGAPPPSK
modifications: Y-Aib-EGT-αMeF(2F)-TSD-4Pal-Aib-I-αMeL-LD-Orn-K((2-[2-(2-Amino-ethoxy)-ethoxy]-acetyl)2-(γ-Glu)-CO-(CH2)10-CH3)AQ-Aib-EFI-(D-Glu)-αMeY-LIEGGPSSGAPPPSK((2-[2-(2-Amino-ethoxy)-ethoxy]-acetyl)2-(γ-Glu)-CO-(CH2)10-CH3)-NH2
As to B9, the cAMP EC50 is 0.0647 nM with hGLP-1R, greater than 9950 nM in assay [1] and 0.00632 nM in assay [2]. Also, the figures for the cAMP Emax (with hGLP-1R; in assay [2]) were 97.6% and 101%, respectively. Also, the “cAMP EC50 (1.0% HSA)” value with human GIP receptor is 0.321 nM; with human glucagon receptor, greater than 9950 nM; with human GLP-1 receptor it was 4.38 nM. Further, in the assay with human GLP-1 receptor, the “cAMP Emax (1.0% HSA)” value came out at 99.4%.

These data come from patent US20230265151A1, “GIP/GLP1 CO-AGONIST COMPOUNDS” (priority 2020, published 2023).
